The values below come from US20060239990.

The target of this data set is GST-Stat3 fusion protein (UniProt P42227).
Sequence of GST-Stat3 fusion protein (P42227 whole entry, the tested form may be a part): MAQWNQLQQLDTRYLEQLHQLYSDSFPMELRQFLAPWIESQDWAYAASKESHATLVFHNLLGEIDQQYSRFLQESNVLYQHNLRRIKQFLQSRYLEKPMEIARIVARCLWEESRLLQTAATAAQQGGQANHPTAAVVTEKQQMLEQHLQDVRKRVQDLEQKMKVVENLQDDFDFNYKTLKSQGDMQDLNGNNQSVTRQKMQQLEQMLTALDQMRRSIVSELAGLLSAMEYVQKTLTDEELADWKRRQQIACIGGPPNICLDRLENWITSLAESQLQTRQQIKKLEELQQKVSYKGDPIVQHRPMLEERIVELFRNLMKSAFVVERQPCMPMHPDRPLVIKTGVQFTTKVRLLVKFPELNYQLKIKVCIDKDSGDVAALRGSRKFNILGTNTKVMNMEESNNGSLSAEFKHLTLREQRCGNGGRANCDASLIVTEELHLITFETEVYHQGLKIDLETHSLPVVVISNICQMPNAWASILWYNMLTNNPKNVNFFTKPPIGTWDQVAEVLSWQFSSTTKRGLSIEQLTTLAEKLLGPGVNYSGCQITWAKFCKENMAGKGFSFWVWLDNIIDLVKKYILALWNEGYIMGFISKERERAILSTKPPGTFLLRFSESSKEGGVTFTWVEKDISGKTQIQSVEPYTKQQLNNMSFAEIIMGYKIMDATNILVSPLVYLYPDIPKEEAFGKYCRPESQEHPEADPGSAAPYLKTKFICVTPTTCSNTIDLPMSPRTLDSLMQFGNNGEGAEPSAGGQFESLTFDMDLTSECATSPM

Take “mutated mouse PRMT2-Flag lacking functional Ado-Met domain (alanine for 145-GCGTG-149)”: the “in vitro methylation with [3H]-AdoMet” value was “transfection of neither vector alone nor mutated PRMT2-Flag cDNA induced methylation of GST-Stat3 (FIG. 20A, lanes 4 and 5)”.
